The record followed here is patent US20260242467A1.

The assay addresses NKG2A (human) (UniProt P26715). Nature of the assay: flow cytometry on primary NK cells, 0 µM mabkine control of the competition assay. For orientation: In flow cytometry, cells or beads pass a laser one at a time.
Sequence of UniProt P26715 (P26715 whole entry): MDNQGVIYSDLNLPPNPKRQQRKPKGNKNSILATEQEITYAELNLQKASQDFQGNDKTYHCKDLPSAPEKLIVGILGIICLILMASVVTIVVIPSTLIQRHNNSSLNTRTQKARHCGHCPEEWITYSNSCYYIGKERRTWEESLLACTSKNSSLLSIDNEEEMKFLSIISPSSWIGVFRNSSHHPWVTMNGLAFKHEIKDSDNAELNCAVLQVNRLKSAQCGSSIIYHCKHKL

Substance “anti-NKG2A (S19004C) from Biolegend (antibody)” yielded a % of CD56+ cells stained (without mabkine) of 26.5%.
